T1: mouse HIDE1 (mouse, UniProt Q75VT8 22-222)
T1 construct: Endogenous on EL4, YAC-1, J774A.1/J774A.2 cells; also called AB124611; mHIDE1
T1 sequence: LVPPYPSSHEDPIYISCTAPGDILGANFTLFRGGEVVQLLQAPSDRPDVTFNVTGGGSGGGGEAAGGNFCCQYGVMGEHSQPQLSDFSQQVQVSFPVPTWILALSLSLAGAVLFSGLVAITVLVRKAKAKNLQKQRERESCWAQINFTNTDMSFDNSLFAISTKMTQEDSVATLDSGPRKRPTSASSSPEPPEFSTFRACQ

T2: human HIDE1 (human, UniProt A8MVS5 20-230)
T2 construct: Endogenous on U937, HL-60, THP-1 cells, blood monocytes, AML blasts and dendritic cells; also called C19orf38; hHIDE1
T2 sequence: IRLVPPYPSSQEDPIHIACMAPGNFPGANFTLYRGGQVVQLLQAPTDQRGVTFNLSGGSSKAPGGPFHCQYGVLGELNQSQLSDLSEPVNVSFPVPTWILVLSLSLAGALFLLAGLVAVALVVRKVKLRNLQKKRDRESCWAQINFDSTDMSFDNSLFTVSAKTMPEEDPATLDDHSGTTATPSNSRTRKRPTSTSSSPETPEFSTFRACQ

B1: CPA.12.014 Fab (B12 S404-01.E06) (Fab, V domains shown)
VH: QVTLKESGPALVTPTQNLTLTCTVSGGSISSSSYYWGWIRQPPGKGLEWIGSIYYSGSTYYNPSLKSRVTISVDTSKNQFSLKLSSVTAADTAVYYCARRRNSSGWFYFDYWGQGTLVTVSS
VL: QSVLTQPPSVSGAPRQRVTISCSGSRSNIGDNAVNWYQHPPGKAPKLLIYYDDLLPSGVSDRFSGSKSGTSASLAISGLQSEDEADYYCATWDDSLNGHVFGTGTKLTVLG
notes: XOMA031 library Fab in periplasmic extract
B2: CPA.12.002 Fab (A02 S397-01.A08) (Fab, V domains shown)
VH: EVQLVESGGGLVQPGRSLRLSCAASGFTFSSYAMHWVRQVPGKGLEWVAVISYDGSNKYYADSVKGRFTISRDNSKNTLYLQMNSLRAEDTAVYYCAKPMYSSGWYPLGYWGQGTLVTVSS
VL: DIVMTQTPLSLPVTPGQPASISCRSSQSPLDTDGNTYLDWYLQRPGQSPQLLIYTLSNRASGVPDRFSGSGSGTDFTLKISRVEAEDVGIYYCMQRIQYPLTFGPGTRLEIKR
notes: as for B1
B3: CPA.12.006 Fab (A07 S398-01.D09) (Fab, V domains shown)
VH: EVQLVESGGGVVQPGRSLRLSCAASGFTFSSFAMHWVRQAPGKGPEWLGIILYEGGHVVYADSVRGRLTISRDNSKNTLYLQMDSLRDEDTAVYYCAKGFYHAFDVWGQGTMVTVSS
VL: QAVLTQPASLSASPGASASLTCTLRSGINVGTYRIYWYQQKPGSPPQYLLRYKSDSDKQQGSGVPSRFSGSKDASANAGILLISGLQSEDEADYYCMIWHSSAWVFGGGTQLTVLG
notes: as for B1
B4: CPA.12.001 human IgG4 (antibody, V domains shown)
VH: QVQLVESGGGLVQPGRSLRLSCAASGFTFSSYGMHWVRQAPGKGLEWVAVISYDGSNKYYADSVKGRFTISRDNSKNTLYLQMNSLRAEDTAVYYCASEGVDFWSGLDYWGQGTLVTVSS
VL: QSALTQPRSASGSAGQSVTISCTGTSSDVGGHNYVSWYQQFPGKAPKLLIYEVSHRPSGVPDRFSGSKSGNTASLTVSGLQAEDEADYYCSSYADLNNLMFGGGTKLTVLG
notes: also called CPA.12.001-H4
B5: CPA.12.012 human IgG4 (antibody, V domains shown)
VH: QVQLVESGGGVVQPGRSLRLSCAASGFTFSSYAMHWVRQAPGKGLEWVAVISYDGSNKYYADSVKGRFTISRDNSKNTLYLQMNSLRAEDTAVYYCARSSGSSWSNIAYWGQGTLVTVSS
VL: QSVLTQPPSVSGAPGQRVTISCIGSSSNIGAGYDVHWYRQLPGTAPKLLIYDNTNRPSGVPDRFSASKSGISASLAITGLQAEDEADYYCQSYDSNLSGVFGGGTQLTVLG
notes: also called CPA.12.012-H4; CPA.12.0012-H4
B6: CPA.12.004 human IgG4 (antibody, V domains shown)
VH: EVQLVETGGGLIQPGRSLRLSCVASDFRFSNHAMHWVRQAPGKELEWVAVISSDGSNRQYAYSVKGRFTISRDNSKNTLYLEMNILGPEDTAVYFCVRSHLGPEWYYGMDVWGQGTTVTVSS
VL: DIQMTQSPSSLSTSVGDSVTITCRSSQSISTFLSWFQHKPGKAPNLLIYDASSLQSGVPSRFSGSGSGTDFTLTISSLQPEDFATYYCQQSDYLPFTFGPGTKVEIKR
notes: also called CPA.12.004-H4
B7: CPA.12.013 human IgG4 (antibody, V domains shown)
VH: B6 VH
VL: DIQMTQSPSSLSASVGDRVTITCQASHDIRKFLNWYQQHPGKAPKLLIYDAAYSEIGVPSRFSGGGSGTDFTFTINNLQPDDFATYYCQQYESLPFTFGPGTKVDIKR
notes: also called CPA.12.013-H4
B8: CPA.12.002 human IgG4 (antibody, V domains shown)
VH: B2 VH
VL: B2 VL
notes: also called CPA.12.002-H4
B9: CPA.12.007 human IgG4 (antibody, V domains shown)
VH: EVQLVESGGGVVQPGESLRLSCAASGFTFSSYGFHWVRQSPGEGLEWLAVISYDGTSKSYADSVKGRFTVSRDNSKETLYLQLSSLRREDTALYYCARDTWGYYYGMDVWGQGTTVTVSS
VL: DIQMTQSPSFLSGSVGDRVSISCRASQDIRSHLAWYQRKPGEAPKLLIYTASSLQGGVPLRFSGSGSGTEFTLTISSLQPEDSATYYCQHLHLYPLTFGGGTKLEIKR
notes: also called CPA.12.007-H4
B10: CPA.12.006 human IgG4 (antibody, V domains shown)
VH: B3 VH
VL: B3 VL
notes: also called CPA.12.006-H4
B11: CPA.12.009 human IgG4 (antibody, V domains shown)
VH: QMQLVQSGAEVKKPGASVKVSCKASGYTFTTHAFSWVRQAPGLGLEWMGWISTYNGNTKYEQKFQGRVTLTTDSSTNTAYMELRSLRSDDTAVYYCVRDSRAFDVWGQGTMVTVSS
VL: DIQLTQSPSFLSASVGDRVTITCRASQGINSYLAWYQQKPGAAPKLLIYAASTLQSGVPSRFSGSGSGTEFTLTISSLQPEDFATYYCQQLNTYPLIFGQGTRLEIKR
notes: also called CPA.12.009-H4
B12: CPA.12.003 human IgG4 (antibody, V domains shown)
VH: QVQLQESGPGLVTPSETLSLTCTVSGGSISSVSYYWGWVRQPPGKGLEWIGSIYYSGTTAHNPSLKSRVTMAVDTSKNQFSLSLSSVTAADTAVYFCARGWRYYEDYYFDHWGQGTLVTVSS
VL: DIQMTQSPSTLSASVGDRVTITCRASQSINRWLAWYQQKPGKAPKILIYTASSLESGVPSRFSGSGSGTEFTLTISSLQPDDFATYYCQQYNSYPITFGQGTRLEIKR
notes: also called CPA.12.003-H4
B13: CPA.12.008 human IgG4 (antibody, V domains shown)
VH: B12 VH
VL: AIRMTQSPSSLSASVGDRVTITCQASQDISNYLNWYQQKPGKAPKSLIYAASSLQSGVPSKFSGSGSGTDFTLTISSLQPEDFATYYCQQYYSYPLTFGGGTKVEIKR
notes: also called CPA.12.008-H4
B14: CPA.12.005 human IgG4 (antibody, V domains shown)
VH: QVQLVESGGGVVQPGRSLRVSCAVSGFTFSSYGMHWVRQAPGGGLEWVAVMSYEGSFRHYADSVKGRFTISRDNSKNTLFLQMDSLRAEDTAVYYCARDRPAGYTSGWGILDYWGQGTLVTVSS
VL: EIVMTQSPATLSLSPGERATLSCRASQSVSSYLAWYQQKPGQAPRLLIYDASNRATGIPARFSGSGSGTDFTLTISSLEPEDFAVYYCQQRSNWPLTFGGGTKVDIKR
notes: also called CPA.12.005-H4

Experimental findings from patent US20180305451A1 (COMPUGEN, published 2018) are described below.

The Kd is the equilibrium constant for the complex coming apart. A word on the koff: it is the first-order rate constant of dissociation. By kon is commonly meant the rate constant with which the complex forms.

In one assay the target is T3, HIDE1_HH-1 (Human ECD + human IgG1 Fc mutated C220S at hinge), without SP (human).
T3 construct: Batch #280 in the Serotec and phage display work; also called HIDE1 hECD-hIg; HIDE1 (H:H) recombinant Fc fusion protein
T3 sequence (chain, as listed by the source C220S C220S limits assumed): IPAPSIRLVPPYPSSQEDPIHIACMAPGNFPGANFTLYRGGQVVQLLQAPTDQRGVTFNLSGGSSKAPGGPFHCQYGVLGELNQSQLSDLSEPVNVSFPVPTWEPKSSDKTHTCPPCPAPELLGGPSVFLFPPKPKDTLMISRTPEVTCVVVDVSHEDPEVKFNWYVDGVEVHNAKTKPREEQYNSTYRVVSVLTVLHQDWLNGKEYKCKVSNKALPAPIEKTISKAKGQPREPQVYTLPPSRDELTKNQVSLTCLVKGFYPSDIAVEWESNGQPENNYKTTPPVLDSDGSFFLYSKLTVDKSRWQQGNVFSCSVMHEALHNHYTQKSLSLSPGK
Nature of the assay: SPR (ProteOn), Fab PPE over captured HIDE1-HH-1, 1:1 fit. As for the experimental part: Preliminary Fab binding kinetics were determined using Fab PPEs produced as described in paragraph [001064] (“Fab PPE production”)[001064]. Studies were conducted using Biacore 3000 and ProteOn XPR 36 instruments at 22° C.
A high density goat anti-human Fc antibody (Invitrogen) was immobilized by standard amine coupling over all lanes of a GLC chip using a ProteOn XPR 36 biosensor (Biorad). This surface was used to capture the recombinant HIDE1-H:H fusion protein (GenScript Lot 393383-21, batch #280) or a control Fc fusion protein (CD155, Sino Biologicals) in the vertical flow-cell direction at a concentration of ˜0.5 μg/mL for 90 seconds.
As to B1, the equilibrium dissociation constant (Kd) is 37 nM, the koff is 0.0037 s⁻¹ and the kon is 99000 M⁻¹ s⁻¹.
In the case of B2, the dissociation constant (Kd) is 8 nM, the koff stood at 0.00083 s⁻¹ and the kon came out at 100000 M⁻¹ s⁻¹.
On to B3, for which the Kd was found to be 3.9 nM, the off-rate constant (koff) stood at 0.00027 s⁻¹ and the association rate constant (kon) came out at 68000 M⁻¹ s⁻¹.

For the next assay, the target named is T1, mouse HIDE1. In words: FACS on 293T-moHIDE1 cells, human IgG4. On the procedure:
(§1) FACS screening of reformatted IgG4 antibodies: The cell lines described in paragraph [001066] (“FACS screening of PPE”) were mixed with FACS buffer containing the purified anti-HIDE1 IgGs or isotype controls. […] Cells were washed again and fluorescence was detected using an Intellicyt HTFC screening system (Intellicyt). Data were analyzed using FCS Express (DeNovo) and plotted for affinity calculations (KD) in GraphPad Prism (GraphPad Software, Inc.). Note that each anti-HIDE1 antibody was tested over a titration range from 0-80 μg/mL.
(§2) Overview of FACS binding results for human IgG4 antibodies reformatted from Fab screening hits. […] IgGs from the same H-CDR3 family are indicated by the same color, either blue or green. CPA.12.003 & CPA.12.008 have identical heavy chain CDR-3 regions and minor differences in framework regions or other CDRs. The same holds for CPA.12.004 & CPA.12.013. N.B. not binding.
Regarding B4, the binding result is given as “no binding (tested: titration 0-80 µg/mL)”.
For the molecule B5, the binding result is “no binding (tested: titration 0-80 µg/mL)”.
For B6, the binding result is listed as “no binding (tested: titration 0-80 µg/mL)”.
Consider B7, for which the binding result is listed as “no binding (tested: titration 0-80 µg/mL)”.
For B8, the binding result is reported as “no binding (tested: titration 0-80 µg/mL)”.
As for B9, the binding result is “no binding (tested: titration 0-80 µg/mL)”.
In the case of B10, the binding result is “no binding (tested: titration 0-80 µg/mL)”.
Still for that read-out and setting: to B11 belongs “no binding (tested: titration 0-80 µg/mL)”; to B12, “no binding (tested: titration 0-80 µg/mL)”.
Still for that read-out and setting: under B13 stands “no binding (tested: titration 0-80 µg/mL)”.
The same measure, in the same setting: to B14 belongs “no binding (tested: titration 0-80 µg/mL)”.

A further assay addresses T2, human HIDE1. Nature of the assay: FACS titration on 293T-huHIDE1 cells, human IgG4 (preliminary FACS KD). On the procedure: as §1, §2
The molecule B4 yielded a dissociation constant Kd of 61 nM.
B5 showed a dissociation constant Kd of 1.3 nM.
Molecule B6 came in with a Kd of 1.4 nM.
On the same count and under the same terms, under B7 stands 2.6 nM; under B8, 6.4 nM.
On to B9, for which binding was characterised by a dissociation constant (Kd) of 14 nM.
For B10, the Kd amounted to 2.5 nM.
As for B11, the dissociation constant (Kd) was determined as 1.7 nM.
The same measure, in the same setting: under B12 stands 18 nM; under B13, 1.3 nM.
In the case of B14, binding was put at a Kd of 4 nM.
